Measurements reported in publication PMC3463532.

Columns and labels:
[1] = molecular target: Dictyostelium discoideum p97, purified recombinant wild-type (D. discoideum) (UniProt P90532); assay: native gel or EMSA; blue native PAGE (BN-PAGE) of the affinity purified recombinant protein, Coomassie staining; SDS-PAGE beside it; monomers to hexamer
[2] = molecular target: Dictyostelium discoideum p97^R155C, purified recombinant (D. discoideum) (UniProt P90532); assay: as above

Substance: Dictyostelium discoideum p97, purified recombinant wild-type (from UniProt P90532 1-793) (natural protein)
- stoichiometry N [1]: 6

Substance: Dictyostelium discoideum p97^R155C, purified recombinant (from UniProt P90532 1-793) (natural protein)
- stoichiometry N [2]: 6
